Reference: IntAct's records for PubMed 31515488

B1: Peroxisomal biogenesis factor 19 (Homo sapiens), P40855 (parent)
chain: MAAAEEGCSVGAEADRELEELLESALDDFDKAKPSPAPPSTTTAPDASGPQKRSPGDTAKDALFASQEKFFQELFDSELASQATAEFEKAMKELAEEEPHLVEQFQKLSEAAGRVGSDMTSQQEFTSCLKETLSGLAKNATDLQNSSMSEEELTKAMEGLGMDEGDGEGNILPIMQSIMQNLLSKDVLYPSLKEITEKYPEWLQSHRESLPPEQFEKYQEQHSVMCKICEQFEAETPTDSETTQKARFEMVLDLMQQLQDLGHPPKELAGEMPPGLNFDLDALNLSGPPGASGEQCLIM
partner: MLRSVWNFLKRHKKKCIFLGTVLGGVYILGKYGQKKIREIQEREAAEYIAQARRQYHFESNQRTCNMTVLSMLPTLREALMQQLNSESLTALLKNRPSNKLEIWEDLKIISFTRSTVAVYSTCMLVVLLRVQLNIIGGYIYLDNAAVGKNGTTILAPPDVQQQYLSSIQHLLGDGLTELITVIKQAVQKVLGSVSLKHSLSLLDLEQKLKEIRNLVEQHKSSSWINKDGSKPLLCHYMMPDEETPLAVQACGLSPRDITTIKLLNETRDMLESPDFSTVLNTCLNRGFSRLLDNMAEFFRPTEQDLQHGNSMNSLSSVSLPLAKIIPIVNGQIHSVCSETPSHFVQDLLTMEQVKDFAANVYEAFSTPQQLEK
B2: mRNA-decapping enzyme 1A (Homo sapiens), Q9NPI6 (parent)
chain: MEALSRAGQEMSLAALKQHDPYITSIADLTGQVALYTFCPKANQWEKTDIEGTLFVYRRSASPYHGFTIVNRLNMHNLVEPVNKDLEFQLHEPFLLYRNASLSIYSIWFYDKNDCHRIAKLMADVVEEETRRSQQAARDKQSPSQANGCSDHRPIDILEMLSRAKDEYERNQMGDSNISSPGLQPSTQLSNLGSTETLEEMPSGSQDKSAPSGHKHLTVEELFGTSLPKEQPAVVGLDSEEMERLPGDASQKEPNSFLPFPFEQLGGAPQSETLGVPSAAHHSVQPEITTPVLITPASITQSNEKHAPTYTIPLSPVLSPTLPAEAPTAQVPPSLPRNSTMMQAVKTTPRQRSPLLNQPVPELSHASLIANQSPFRAPLNVTNTAGTSLPSVDLLQKLRLTPQHDQIQTQPLGKGAMVASFSPAAGQLATPESFIEPPSKTAAARVAASASLSNMVLAPLQSMQQNQDPEVFVQPKVLSSAIPVAGAPLVTATTTAVSSVLLAPSVFQQTVTRSSDLERKASSPSPLTIGTPESQRKPSIILSKSQLQDTLIHLIKNDSSFLSTLHEVYLQVLTKNKDNHNL
partner: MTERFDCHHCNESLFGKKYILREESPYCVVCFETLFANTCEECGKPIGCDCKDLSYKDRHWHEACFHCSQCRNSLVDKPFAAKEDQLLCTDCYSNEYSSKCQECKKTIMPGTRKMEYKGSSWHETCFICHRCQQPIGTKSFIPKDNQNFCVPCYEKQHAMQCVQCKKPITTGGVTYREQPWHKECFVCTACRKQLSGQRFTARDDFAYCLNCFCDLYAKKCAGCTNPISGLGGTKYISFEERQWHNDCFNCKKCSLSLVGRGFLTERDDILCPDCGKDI
B3: Coiled-coil domain-containing protein 185 (Homo sapiens), Q8N715 (parent)
chain: MAGFSHFSQPPYRDLWEPPRPGGERESTQRLGGQRSGADSTACSRAGTPGAESEAGACWLHPHCSFTPRPRRRGCSDSLRGSRSLSDVARRPLERSRKHRPRSRRLEDAWGETGTKPRPAWQPQTQLPPQRPQPCPHYPLAQGDSPPPCPGGAGTPLSGTFRVEKAQGGDQWAVPLGRHLGRWSPSSVPSERSSVPSQKFKRHSACVCAQKRDSSDQVESLASRDSQPLASSKEMRSPHTQVLKSKLEEVVVSSQDQQIVALVLTRLKKAQRIRELQQQAAKAWEELKRSDQKVQMTLERERRLLLRQSQEQWQEKEQRKTLQSPEQRGLRRDSQRKNVPPGESRWKEQPEDQESPRQEKLEKARAQAEHRKQCQVRRLREQEKMLRNLREQHSLQLQRRLVEACRKRHLHAVEGQKKVQDTNLSSLINYQARKVLMDCQAKAEELLRQLSLEQSFQRSQEIHQGLRKERQRELREKAQKEEEQLQQARWRAGESEEQRKMRKRILVELADEKIRQARSHVHKTTRDKVQHLRELNHLREKNHHILKLKAEKEEKCHIEGIKEAIKKKEQRVQHISQGKDPNFQEFQKLPQASRREERAPPNSSLDQMVLEAQLRACQQNRGY
B4: Methylthioribulose-1-phosphate dehydratase (Homo sapiens), Q96GX9 (parent)
chain: MSGCDAREGDCCSRRCGAQDKEHPRYLIPELCKQFYHLGWVTGTGGGISLKHGDEIYIAPSGVQKERIQPEDMFVCDINEKDISGPSPSKKLKKSQCTPLFMNAYTMRGAGAVIHTHSKAAVMATLLFPGREFKITHQEMIKGIKKCTSGGYYRYDDMLVVPIIENTPEEKDLKDRMAHAMNEYPDSCAVLVRRHGVYVWGETWEKAKTMCECYDYLFDIAVSMKKVGLDPSQLPVGENGIV
partner: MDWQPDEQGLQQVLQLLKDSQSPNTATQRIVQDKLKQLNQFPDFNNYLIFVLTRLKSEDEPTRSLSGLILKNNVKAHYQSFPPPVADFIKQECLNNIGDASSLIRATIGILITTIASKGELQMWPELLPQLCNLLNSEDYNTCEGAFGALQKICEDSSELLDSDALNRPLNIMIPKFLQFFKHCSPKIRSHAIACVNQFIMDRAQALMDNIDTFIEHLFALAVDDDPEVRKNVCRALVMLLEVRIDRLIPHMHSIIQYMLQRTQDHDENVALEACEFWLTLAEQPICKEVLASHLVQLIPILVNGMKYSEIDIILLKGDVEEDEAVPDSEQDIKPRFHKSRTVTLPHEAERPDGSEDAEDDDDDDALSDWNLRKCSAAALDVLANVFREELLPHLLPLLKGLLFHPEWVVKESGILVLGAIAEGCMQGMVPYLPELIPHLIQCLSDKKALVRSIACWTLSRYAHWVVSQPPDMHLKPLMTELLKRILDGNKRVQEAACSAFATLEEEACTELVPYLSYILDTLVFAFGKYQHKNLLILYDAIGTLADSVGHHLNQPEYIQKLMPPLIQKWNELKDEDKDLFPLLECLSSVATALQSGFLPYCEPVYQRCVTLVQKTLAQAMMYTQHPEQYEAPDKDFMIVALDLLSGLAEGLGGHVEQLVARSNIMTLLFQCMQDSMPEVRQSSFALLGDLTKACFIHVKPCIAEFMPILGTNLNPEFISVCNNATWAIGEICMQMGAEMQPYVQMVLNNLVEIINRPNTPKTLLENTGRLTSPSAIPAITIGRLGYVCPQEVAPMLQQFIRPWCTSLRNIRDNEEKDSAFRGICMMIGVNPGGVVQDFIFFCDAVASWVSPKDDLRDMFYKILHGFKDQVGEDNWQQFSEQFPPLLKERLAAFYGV
B5: Farnesyl pyrophosphate synthase (Homo sapiens), P14324 (parent)
chain: MPLSRWLRSVGVFLLPAPYWAPRERWLGSLRRPSLVHGYPVLAWHSARCWCQAWTEEPRALCSSLRMNGDQNSDVYAQEKQDFVQHFSQIVRVLTEDEMGHPEIGDAIARLKEVLEYNAIGGKYNRGLTVVVAFRELVEPRKQDADSLQRAWTVGWCVELLQAFFLVADDIMDSSLTRRGQICWYQKPGVGLDAINDANLLEACIYRLLKLYCREQPYYLNLIELFLQSSYQTEIGQTLDLLTAPQGNVDLVRFTEKRYKSIVKYKTAFYSFYLPIAAAMYMAGIDGEKEHANAKKILLEMGEFFQIQDDYLDLFGDPSVTGKIGTDIQDNKCSWLVVQCLQRATPEQYQILKENYGQKEAEKVARVKALYEELDLPAVFLQYEEDSYSHIMALIEQYAAPLPPAVFLGLARKIYKRRK
partner: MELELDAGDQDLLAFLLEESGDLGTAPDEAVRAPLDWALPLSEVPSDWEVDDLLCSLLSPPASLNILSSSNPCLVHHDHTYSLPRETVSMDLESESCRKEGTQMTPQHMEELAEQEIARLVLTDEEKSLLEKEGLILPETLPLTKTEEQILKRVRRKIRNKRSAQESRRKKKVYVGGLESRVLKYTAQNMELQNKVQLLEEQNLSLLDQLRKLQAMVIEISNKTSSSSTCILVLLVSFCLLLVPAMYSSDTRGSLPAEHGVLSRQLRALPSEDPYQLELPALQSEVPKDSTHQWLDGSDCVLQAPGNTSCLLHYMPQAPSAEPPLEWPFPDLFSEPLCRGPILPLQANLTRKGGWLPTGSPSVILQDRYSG
B6: Vesicle transport through interaction with t-SNAREs homolog 1B (Homo sapiens), Q9UEU0 (parent)
chain: MASSAASSEHFEKLHEIFRGLHEDLQGVPERLLGTAGTEEKKKLIRDFDEKQQEANETLAEMEEELRYAPLSFRNPMMSKLRNYRKDLAKLHREVRSTPLTATPGGRGDMKYGIYAVENEHMNRLQSQRAMLLQGTESLNRATQSIERSHRIATETDQIGSEIIEELGEQRDQLERTKSRLVNTSENLSKSRKILRSMSRKVTTNKLLLSIIILLELAILGGLVYYKFFRSH
partner: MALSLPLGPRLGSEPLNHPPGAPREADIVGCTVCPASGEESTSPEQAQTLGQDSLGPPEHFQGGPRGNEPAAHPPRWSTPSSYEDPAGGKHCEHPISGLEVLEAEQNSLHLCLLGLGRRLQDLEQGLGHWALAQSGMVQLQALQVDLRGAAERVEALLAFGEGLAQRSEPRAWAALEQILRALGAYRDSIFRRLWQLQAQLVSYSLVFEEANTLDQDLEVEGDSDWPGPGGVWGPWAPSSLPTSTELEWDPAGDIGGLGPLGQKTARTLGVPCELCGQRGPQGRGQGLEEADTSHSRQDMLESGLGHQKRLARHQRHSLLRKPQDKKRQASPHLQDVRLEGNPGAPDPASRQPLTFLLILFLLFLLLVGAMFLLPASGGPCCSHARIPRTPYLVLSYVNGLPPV

Variants of: B1
Settings: with pex3_human PEX3, P56589
In the case of R207G, the “effect of a mutation on the interaction” value is reported as “with no effect”. For A85V, the “effect of a mutation on the interaction” value was “with no effect”. L26I was tested, and the “effect of a mutation on the interaction” value was “with no effect”. L21V was tested, and the “effect of a mutation on the interaction” value was “with no effect”.

Variants of: B2
Settings: with fhl2_human FHL2, Q14192
For P332T, the “effect of a mutation on the interaction” value was “with no effect”. With Q474H the “effect of a mutation on the interaction” value was “with no effect”. In the case of A297G, the “effect of a mutation on the interaction” value is reported as “with no effect”.

Variants of: B3
Settings: with KRT15, P19012
KRT15, P19012, sequence (P19012 whole entry): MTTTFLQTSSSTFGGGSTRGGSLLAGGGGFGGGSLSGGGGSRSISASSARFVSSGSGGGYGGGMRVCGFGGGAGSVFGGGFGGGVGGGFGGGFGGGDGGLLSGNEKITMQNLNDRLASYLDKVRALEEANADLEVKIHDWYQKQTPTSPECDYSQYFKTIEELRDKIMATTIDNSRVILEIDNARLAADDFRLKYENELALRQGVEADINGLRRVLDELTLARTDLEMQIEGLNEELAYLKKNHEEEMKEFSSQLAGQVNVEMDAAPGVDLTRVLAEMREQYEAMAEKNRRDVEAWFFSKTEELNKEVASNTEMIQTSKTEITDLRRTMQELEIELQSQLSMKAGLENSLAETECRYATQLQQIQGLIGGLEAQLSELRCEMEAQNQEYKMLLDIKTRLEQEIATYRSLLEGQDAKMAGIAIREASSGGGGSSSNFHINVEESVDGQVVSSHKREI
In the case of S603G, the “effect of a mutation on the interaction” value is reported as “with no effect”.

Variants of: B4
Settings: with tnpo2_human TNPO2, O14787
For G111A, the “effect of a mutation on the interaction” value was “with no effect”. In the case of M181V, the “effect of a mutation on the interaction” value is reported as “disrupting interaction strength”.

Variants of: B5
Settings: with creb3_human CREB3, O43889
R150Q was tested, and the “effect of a mutation on the interaction” value was “with no effect”.

Variants of: B6
Settings: with syne4_human SYNE4, Q8N205
With R176H the “effect of a mutation on the interaction” value was “with no effect”. With R124Q the “effect of a mutation on the interaction” value was “with no effect”.
